Data reported in the supplement of paper PMC9732359.
± gives the uncertainty stated by the source.

Assay: protein stability index of a GFP-peptide fusion (yeast GPS) (PSI 1-4); higher = more stable; sorted into four equal gates, so the index is relative within each strain
Summary of the method: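 Sequencing reads from sorted gates were used to score each peptide. The library consisted of tiled 17-residue yeast protein peptides fused downstream of GFP on a Cherry-expressing plasmid, pooled and carried in yeast. Mid-log cultures in leucine-free medium were split into four equal gates by GFP/Cherry ratio, and each gate's plasmids were PCR-amplified and Illumina-sequenced. The protein stability index adds up, over all gates, the read frequency multiplied by the gate number.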

| Sequence | protein stability index (doa10∆) | protein stability index (pdr5∆) | protein stability index (san1∆) | protein stability index (ubr1∆) |
| --- | --- | --- | --- | --- |
| LGVPRIKEIINASKVIS [RPO31] | 3.03 ± 0.1 | 2.59 ± 0.2 | 1.49 ± 0.12 | 1.71 ± 0.24 |
| KKISRLPKFLTVQYVRF [UBP6] | 1.65 ± 0.043 | 1.44 ± 0.041 | 1.28 ± 0.08 | 1.36 ± 0.035 |
| MKSLLTELSNKETTIEK [YIL149C/MLP2] | 3.23 ± 0.13 | 3 ± 0.12 | 3.41 ± 0.07 | 3.25 ± 0.062 |
| AAAGAAMIDAGALEEIT [FAS2] | 2.72 ± 0.15 | 2.96 ± 0.11 | – | 2.73 ± 0.1 |
| NGCSGADVKGVCTEAGM [RPT6] | 3.15 ± 0.18 | 3.7 ± 0.16 | 3.25 ± 0.11 | 3.1 ± 0.11 |
| LWELALAFIPNILALNL [YML031W/NDC1] | 2.01 ± 0.069 | 1.86 ± 0.048 | 1.85 ± 0.083 | 1.34 ± 0.061 |
| IGISIVGRFSTISSADF [ECM29] | 2.81 ± 0.24 | 2.54 ± 0.092 | 3.12 ± 0.3 | 2.26 ± 0.19 |
| EEGETSRPLKKVKILEQ [SWI3] | 3.01 ± 0.11 | 3.28 ± 0.092 | 2.86 ± 0.08 | 3.03 ± 0.053 |
| INLAMNESSLALEFVSL [SRB4] | 1.44 ± 0.088 | 1.41 ± 0.074 | 1.81 ± 0.12 | 1.92 ± 0.064 |
| KVCECVCMHCGKLLLDE [RPO21] | 2.96 ± 0.082 | 2.97 ± 0.073 | 2.88 ± 0.087 | 2.96 ± 0.047 |
| LSGNPLTSVTNDICSVE [SIR4] | 2.54 ± 0.068 | 2.95 ± 0.064 | 3.09 ± 0.058 | 2.96 ± 0.062 |
| GNNKDLKNTMQYLTNFS [RPB4] | 3.16 ± 0.08 | 3.02 ± 0.072 | 3.02 ± 0.075 | 3.13 ± 0.061 |
| TNTHPNFLSKIRNINVQ [SNF2] | 1.44 ± 0.049 | 1.68 ± 0.063 | 1.49 ± 0.09 | 1.34 ± 0.031 |
| ELLREWLETYSENRDKF [IRR1] | 3.34 ± 0.066 | 3.43 ± 0.098 | 3.61 ± 0.078 | 3.51 ± 0.056 |
| YVQVRQPIFVAHTAGRY [RPS5] | 1.7 ± 0.064 | 1.84 ± 0.059 | 1.89 ± 0.11 | 1.74 ± 0.068 |
| KDSYVRIANIEQNHLDN [YDL088C/ASM4] | 3.12 ± 0.14 | 3.43 ± 0.28 | 3.05 ± 0.13 | 3.18 ± 0.13 |
| ILDIVINNPVNLTIHFG [FAS1] | 2.06 ± 0.088 | 2.4 ± 0.078 | 2.5 ± 0.097 | 3.02 ± 0.075 |
| YRSHIFATNEERQMNFL [SWI3] | 3.24 ± 0.091 | 2.69 ± 0.081 | 2.59 ± 0.081 | 2.72 ± 0.051 |
| LQPVIPGGAASKSVPTP [SNF5] | 2.93 ± 0.13 | 3.28 ± 0.062 | 3.12 ± 0.049 | 3.13 ± 0.053 |
| TCVSMAPIQLKIDLLSG [RGR1] | 1.67 ± 0.046 | 1.84 ± 0.062 | 1.87 ± 0.081 | 2 ± 0.038 |
| NIMSASGGLFGNQQQQL [YGL172W/NUP49] | 3.25 ± 0.067 | 3.12 ± 0.086 | 3.29 ± 0.1 | 3.2 ± 0.042 |
| ILAMTYSENGKHDSLRY [RPN1] | 3.28 ± 0.23 | – | 2.73 ± 0.2 | 2.62 ± 0.29 |
| IIKENVKVARLAGKYIP [FAS1] | 1.73 ± 0.23 | 1.6 ± 0.27 | – | 1.82 ± 0.1 |
| PTTTTGGLFGNSAQNNS [YGR119C/NUP57] | 3.11 ± 0.071 | 3.18 ± 0.097 | 3 ± 0.062 | 3.24 ± 0.054 |
| IRNIVEAAAVRDLSEAS [RPS26A] | 2.07 ± 0.066 | 2.39 ± 0.082 | 2.39 ± 0.079 | 2.49 ± 0.077 |
| LIVRAKNHTHNLPGNIT [RRP4] | 2.77 ± 0.071 | 2.96 ± 0.049 | 2.89 ± 0.066 | 2.94 ± 0.052 |

| Sequence | protein stability index (doa10∆) | protein stability index (pdr5∆) | protein stability index (san1∆) | protein stability index (ubr1∆) |
| --- | --- | --- | --- | --- |
| HMATALQIAQLTLKHRQ [RPN10] | 1.58 ± 0.13 | 1.8 ± 0.084 | 1.59 ± 0.11 | 1.62 ± 0.068 |
| SLSDELNLDEIVACELI [YJL039C/NUP192] | 2.75 ± 0.13 | 2.53 ± 0.1 | – | 2.61 ± 0.14 |
| EFLEDTSRTIVRNVKGP [RPS28A] | – | – | 3.15 ± 0.29 | 3.03 ± 0.16 |
| NTDLKDIIQGNPLMYSG [PCI8] | 2.84 ± 0.051 | 3.13 ± 0.085 | 3.21 ± 0.11 | 3.2 ± 0.086 |
| AIACYSGYNQEDSMIMN [RPB2] | 2.65 ± 0.084 | 1.75 ± 0.072 | 2.67 ± 0.098 | 2.39 ± 0.12 |
| RNMAEEFEYDDEPDEQG [CYT1] | 3.12 ± 0.073 | 3.17 ± 0.061 | 3.17 ± 0.064 | 3.09 ± 0.059 |
| LKKGEQKTQELNAKYQS [ISW2] | 3.31 ± 0.063 | 3.22 ± 0.047 | 3.29 ± 0.039 | 3.29 ± 0.055 |
| NNMLYPREDKENNRLLF [RPB9] | 3.13 ± 0.13 | 3.43 ± 0.16 | 2.78 ± 0.1 | 3.25 ± 0.22 |
| EQHEEKAAEGEEKEEEN [QCR6] | 3.25 ± 0.12 | 2.92 ± 0.18 | 2.98 ± 0.23 | 3.23 ± 0.079 |
| GGLFGNSAQNNSTTSGG [YGR119C/NUP57] | 3.08 ± 0.069 | 3.36 ± 0.11 | 2.78 ± 0.068 | 3.06 ± 0.096 |
| AIIGLKSGTSHDAIFSI [SNF12] | 2.56 ± 0.11 | 2.65 ± 0.082 | 2.5 ± 0.069 | 2.96 ± 0.17 |
| DESDSENDIEIKGPEFK [YLR335W/NUP2] | 2.88 ± 0.11 | 2.92 ± 0.21 | 3.03 ± 0.13 | 2.96 ± 0.095 |
| HSSSVFKGTDFVHSVKK [SRB4] | 2.75 ± 0.073 | 2.93 ± 0.074 | 3.15 ± 0.048 | 2.99 ± 0.056 |
| ERVRLRPEQLSNIIHDE [SNF6] | 1.73 ± 0.06 | 2.23 ± 0.068 | 1.76 ± 0.083 | 1.99 ± 0.041 |
| RRLPMTMFTAEQSELLK [SNF2] | 2.99 ± 0.073 | 3.08 ± 0.073 | 2.83 ± 0.053 | 2.91 ± 0.055 |
| LTLDPRYIWRSLKDLSS [RPN3] | 2.78 ± 0.14 | 2.39 ± 0.29 | 2.82 ± 0.097 | – |
| PAVKQWDLLPEPIRFLP [SWI1] | 2.28 ± 0.058 | 2.27 ± 0.069 | 2.33 ± 0.055 | 2.53 ± 0.072 |
| RQYVGQLAPSSVDPQSS [DIS3] | 2.69 ± 0.05 | 3.06 ± 0.059 | 2.92 ± 0.063 | 2.62 ± 0.055 |
| STAAAPIAAPKKPRKPR [PGD1] | 2.72 ± 0.086 | 3.11 ± 0.076 | 2.75 ± 0.057 | 3.15 ± 0.039 |
| NYFVDTDLKKIIKANQL [RET1] | 2.88 ± 0.058 | 2.85 ± 0.066 | 3.01 ± 0.044 | 2.53 ± 0.036 |
| TVTSLDVVYALKRQGRT [HHF1] | 3.55 ± 0.18 | 3.26 ± 0.13 | 3.18 ± 0.086 | 2.31 ± 0.076 |
| KTVDSSIQPIESNIKMT [SSN2] | 2.47 ± 0.082 | 2.72 ± 0.1 | 2.86 ± 0.083 | 2.74 ± 0.052 |
| FDISMADLSSSEEEEDE [SSN2] | 3.14 ± 0.079 | 3.13 ± 0.077 | 3.11 ± 0.1 | 2.45 ± 0.063 |
| VEKRIGKIVSQRGKWNL [RGR1] | 2.88 ± 0.065 | 2.96 ± 0.049 | 3.16 ± 0.06 | 2.71 ± 0.036 |
| FNTLVRIMSTRCMMAAQ [DIS3] | 1.53 ± 0.07 | 1.73 ± 0.058 | 1.61 ± 0.076 | 1.58 ± 0.036 |
| DEVITEGQADIDMESDV [POP7] | 3.18 ± 0.068 | 3.17 ± 0.058 | 3.33 ± 0.057 | 3.22 ± 0.048 |
